A short description of this data set: soluble on expression in E. coli; label from the status in PepcDB or PDB records.
Turning to “MEESSAAKIQLLKEFKFEKILKDDTKSKIITLYGKIRNEVALLLLEKTAFDLNTIKLDQLATFLQDTKLVENNDVFHWFLSTNFQDCSTLPSVKSTLIWPASETHVYKYSSQKKPMVCETPLMYLKVTKPFIETQRGPQIQWVENILTHKAEAERIVVEDPDPLNGFIVIPDLKWDRQTMSALNLMAIVHATDIASIRDLKYKHIPLLENIRNKVLTEVPKQFSVDKNQLKMFVHYLPSYYHLHVHILHVDHETGDGSAVGRAILLDDVIDRLRNSPDGLENVNITFNIGEQHFLFQPLTNMNA”, the “soluble on expression in E. coli” value was “soluble”.

“MDHEIPVRIVDNQEYMKVVRSILEEGKEVPLVVTGNSMMPFLIDRRDQVLIKRIERPLKKGDIAFFQRENGQYIMHRIHFMRKDDRTGENQFYFIGDGQKNIEGPIKETRIFGVITGVLRKGKYLDEHTFTWRFFENIWRYVIPFRPLIIKIYSLFKR”: the “soluble on expression in E. coli” value is “not soluble”.

With “SHMQSRELKTVSADCKKEAIEKCAQWVVRDCRPFSAVSGSGFIDMIKFFIKVKAEYGEHVNVEELLPSPITLSRKVTSDAKEKKALIGREIKSAVEKDGASATIDLWTDNYIKRNFLGVTLHYHENNELRDLILGLKSLDFERSTAENIYKKLKAIFSQFNVEDLSSIKFVTDRGANVVKSLANNIRINCSSHLLSNVLENSFEETPELNMPILACKNIVKYFKKANLQHRLRSSLKSECPTRWNSTYTMLRSILDNWESVIQILSEAGETQRIVHINKSIIQTMVNILDGFERIFKELQTCSSPSLCFVVPSILKVKEICSPDVGDVADIAKLKVNIIKNVRIIWEENLSIWHYTAFFFYPPALHMQQEKVAQIKEFCLSKMEDLELINRMSSFNELSATQLNQSDSNSHNSIDLTSHSKDISTTSFFFPQLTQNNSREPPVCPSDEFEFYRKEIVILSEDFKVMEWWNLNSKKYPKLSKLALSLLSIPASSAASERTFSLAGNIITEKRNRIGQQTVDSLLFLNSFYKNFCK”, the “soluble on expression in E. coli” value was “soluble”.

Consider “MGHHHHHHSHMPLLVEGRRVRLPQSAGDLVRAHPPLEERARLLRGQSVQQVGPQGLLYVQQRELAVTSPKDGSISILGSDDATTCHIVVLRHTGNGATCLTHCDGTDTKAEVPLIMNSIKSFSDHAQCGRLEVHLVGGFSDDRQLSQKLTHQLLSEFDRQEDDIHLVTLCVTELNDREENENHFPVIYGIAVNIKTAEIYRASFQDRGPEEQLRAARTLAGGPMISIYDAETEQLRIGPYSWTPFPHVDFWLHQDDKQILENLSTSPLAEPPHFVEHIRSTLMFLKKHPSPAHTLFSGNKALLYKKNEDGLWEKISSPGS”, for which the “soluble on expression in E. coli” value is listed as “not soluble”.

As to “MASSSSLSLSFPSSSLSRTWDYDVFPSFHGEDVRKAFLSQILKKEFGRKAINFFVDHEMERGEFIGPVLKQAIKGSKIALVLLSKNYASSWCCLDELVEIMKKESGQTVITIFYEVDPNEVKKQTGDFGKAFKETCQGKTEEKVQTWRKALEGVGLATIAGFHSSNWFVFFI”, the “soluble on expression in E. coli” value is “not soluble”.

With “MSLRESVLKIYNWADYIDEDMLAEFPRWYKEQTGEDIRIVYQTFDINEIMLTKIERGHEDFDVVCPSEYIIERMLRKGLLLPIDTVFGKTPNYLHNESPYIREQLDKLSWSGHRASDYAIGYMWGTAGILFNTDHVPAEDARTWASLWNLKYENKILMKESYRDAYGTALIYANAEDLKKGKVTVEELMNNYSQASIDTVEKYLKAMKPLIAGWEADFGKEMMTKGKAWLNMTWSGDAVWAIEEAEGVGIHLDYEVPVEGSNVWYDGWVIPKYARNKKAASYFINYLCRPDVALRNMDACGYVSAVATPEILEAKIDTTLSYFADLSYFFGPAADSIQIDKVQYPDRTVVERCAMIRDSGDKTELVLEMWSRVKGDNEGHHHHHH”, the “soluble on expression in E. coli” value was “soluble”.

Turning to “SFKADLGTIGIQLHTTYSRRIRKVKVMDNRKEPPFFNEDNVGPFYFKLPFYDPMELFIETLTGTCFELRVSPFEAVISVKGKIQRLEGIPICQQHLIWNNMELEDDYCLNDYNISEGCTLKLVLAMRGGPISTRKVPVEDPLRELAEYMDSSRDEVWEKTSCNKQVTFLVYREGDQLNFFRVVDRGDGTLTPLSESLSGGSVYNLYTDEDEETEPSPSGQQIIENSITMNKMKLLKAKMENMNLSKKVKPLAVRQAFL”, the “soluble on expression in E. coli” value was “soluble”.

Take “MERKKAVVLLSGGLDSSTVLAYAISLGYEVHAISFDYGQRHSREMNSSEELAKYYGVDRKIVHVDLRSIGKSALTDDIEVPSRDLESIPEEIPVTYVPARNTIFLSIAAAYAESIGSTDIFIGANAIDYSGYPDCRPEYFNAMEKALTLGTEIGLRKGMHINVPLQYLTKADIIRMGLKLGVPYEKTWSCYKGGEKACGECDSCLLRLKGFMEAGSEDPLEYEKYPTFYKDYIEKRKK”: the “soluble on expression in E. coli” value was “soluble”.

As to “MSLYDVTEWKHVFKLDPNKDLPDEQLEILCESGTDAVIIGGSDGVTEDNVLRMMSKVRRFLVPCVLEVSAIEAIVPGFDLYFIPSVLNSKNADWIVGMHQKAMKEYGELMSMEEIVAEGYCIANPDCKAAALTEADADLNMDDIVAYARVSELLQLPIFYLEYSGVLGDIEAVKKTKAVLETSTLFYGGGIKDAETAKQYAEHADVIVVGNAVYEDFDRALKTVAAVKGEEGGSHHHHHH”, the “soluble on expression in E. coli” value is on record as “soluble”.

For “SYPYILISGHKHPRLSMHRGAKKRKGEYFGPYPDSGAVRETLHLLQKIFPVRQCEDTVYSNRTRPCLMYQIGRCAGPCVSSIISDEEYAELVGFVRLFLQGKDQQVLKQLIEKMEVASQQLRFEDAAKFRDQIQAIRRVQEQQYVSEDSMDDMDVLGFAQENGIACIHILMIRQGKVLGSRSHFPKIPQNTSQQEVFDSFLTQYYLSHNEARTIPSRIILNQELADDLEPIQKALSEVAGRKVHFHTSPTGARGRYLKLSNTNALTAITTKINHKMTINQRFKALRETLGMESIMRMECFDISHTMGESTIASCVVFNNEGPVKQEYRRYNITGITGGDDYAAMGQALERRYSKQLDVEKIPDIIFIDGGKGQLNRAHEIIAQYWGDWPKRPIMIGIAKGVTRKPGLETLITVDGEEFNLPSDAPALHLIQHIRDESHNHAIAGHRAKRGKTRR”, the “soluble on expression in E. coli” value was “not soluble”.

Turning to “MGSDKIHHHHHHMKILLHMCCGPCAAYPVEQLRGQGAAVTGYWFNHNIHPYQEYMRRRDTVRAYAEKVRLDVIWRDEYRLEEFLAAVAQNPDDRCFYCYFSRLDAVAAAAAAGGFDAFSSTLLYSRYQKHDAIRDCAERAAERHGVAFHYDDYRRGWQEGIRLSKELGLYRHQYCGCIYSEKERYHPREGAK”, the “soluble on expression in E. coli” value was “not soluble”.

On to “MDLYEKIKLLASEKKMSIRQLEETLGFGNGVINRWRKNTPGSDKLKKVADYFNISVDYLLGRTDNPNSNNLEEDEITTFFRVNTEDLTESEKDQLREELKEYLEFMKSRLKNK”, for which the “soluble on expression in E. coli” value was “soluble”.

In the case of “AVVFLWRNEEKWPAEFVSENVVKFGYTVEDFISGNFLYGDIIHPEDRNRVKEELKTRIRRGEVDFNTGYRIFTKAGDVRWVNERAFIQRNREGEITHIQGLVLDIT”, the “soluble on expression in E. coli” value was “not soluble”.

With “MHHHHHHSSGVDLGTENLYFQSMKSVHSSPQNTSHTIMTFYPTMEEFADFNTYVAYMESQGAHQAGLAKVIPPKEWKARQMYDDIEDILIATPLQQVTSGQGGVFTQYHKKKKAMRVGQYRRLANSKKYQTPPHQNFADLEQRYWKSHPGNPPIYGADISGSLFEESTKQWNLGHLGTILDLLEQECGVVIEGVNTPYLYFGMWKTTFAWHTEDMDLYSINYLHFGEPKTWYVVPPEHGQHLERLARELFPDISRGCEAFLRHKVALISPTVLKENGIPFNCMTQEAGEFMVTFPYGYHAGFNHGFNCAEAINFATPRWIDYGKMASQCSCGESTVTFSMDPFVRIVQPESYELWKHR”, the “soluble on expression in E. coli” value is reported as “soluble”.

Regarding “MSLSHKSKKLLLVDDDQTVLKLMTEVLTDFGHCVTSVPSARHALNHFTSAGQAFDLLITDICMPGMNGVELIKAVRAHNGTLPIIAISGFSEPEDQNEIAHYDARMLTKPVDFQTLKQTIDALEGHHHHHH”, the “soluble on expression in E. coli” value is “not soluble”.

On to “MSLIKPDHPRLSILRQCALVSLSRSSFYYQEKGESPLNLKLMELIDRQFMETPFYGARQMARHLRNHEGYCVGRKKICRLMAKMGLVPIYQRPRTTKPHPEHVKYPYLLRDLVIDKPNQVWCTDITYIPMRRGFLYLVAIMDWHSRCVLSWRLSNTMEADFCVEALEEALNKFGKPEIFNTDQGSQFTSQSFTETLKEADIKISMDGKGAWTDNVFIERLWRSLKYECVYLHAFETGSKAHHGIGHWIQFYNERRPHSSLGGLSPNSVYETELWSEAAEGHHHHHH”, for which the “soluble on expression in E. coli” value is recorded as “not soluble”.

(Values after the DeepSol protein solubility set.)
